1 substance from patent publication US20120129237A1 can be followed below.

The target in the test is LDLR (LDL receptor) of HepG2 cells (UniProt P01130). The test can be described thus: cell-based or functional assay.

For the substance “PCSK9c polypeptide (novel PCSK9 variant) (from UniProt Q8NBP7 175-692) (enzyme)”, the LDL uptake assay (DiI-LDL, HepG2 cells) (% more function than wildtype PCSK9) was found to be 50.
